Experimental data as given in the supplement of paper PMC10065799, “High-throughput profiling of sequence recognition by tyrosine kinases and SH2 domains using bacterial peptide display” (eLife, 2023).

Assays:
AncSZ = test: phosphorylation enrichment, bacterial display (enrichment ratio); higher = better substrate or ligand; peptides without Tyr show the background
EPHB1 = EPHB1 (UniProt P54762); test: as above
EPHB2 = EPHB2 (UniProt P29323); test: as above
FGFR1 = FGFR1 (UniProt P11362); test: as above
FGFR3 = FGFR3 (UniProt P22607); test: as above
Fer (mouse) = test: as above
Fes = Fes (UniProt P07332); test: as above
Fyn = Fyn (UniProt P06241); test: as above
Hck = Hck (UniProt P08631); test: as above
Jak2 = Jak2 (UniProt O60674); test: as above
MERTK = MERTK (UniProt Q12866); test: as above
c-Abl (mouse) = test: as above
c-Src = test: as above
Grb2 SH2 = Grb2 SH2 (UniProt P62993); test: SH2 binding enrichment of the phosphorylated peptide, bacterial display (enrichment ratio); higher = better substrate or ligand; peptides without Tyr show the background
SHP2-C SH2 = test: as above
c-Src SH2 = test: as above
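Wherever SH2 binding enrichment of the phosphorylated peptide, bacterial display is given: peptide library displayed on the E. coli surface as eCPX fusions, selected cells deep-sequenced, score is each peptide's frequency after selection divided by its frequency in the input.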
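Wherever phosphorylation enrichment, bacterial display is given: 11-residue human phosphosite peptides and single-mutation variants displayed on the E. coli surface, counted by deep sequencing, each peptide's frequency after selection divided by its frequency in the unselected input library; frequency after pTyr selection over input frequency; kinase dosed for 20-30% of maximal phosphorylation in three min.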

Sequence of EPHB2 (P29323 whole entry, looked up): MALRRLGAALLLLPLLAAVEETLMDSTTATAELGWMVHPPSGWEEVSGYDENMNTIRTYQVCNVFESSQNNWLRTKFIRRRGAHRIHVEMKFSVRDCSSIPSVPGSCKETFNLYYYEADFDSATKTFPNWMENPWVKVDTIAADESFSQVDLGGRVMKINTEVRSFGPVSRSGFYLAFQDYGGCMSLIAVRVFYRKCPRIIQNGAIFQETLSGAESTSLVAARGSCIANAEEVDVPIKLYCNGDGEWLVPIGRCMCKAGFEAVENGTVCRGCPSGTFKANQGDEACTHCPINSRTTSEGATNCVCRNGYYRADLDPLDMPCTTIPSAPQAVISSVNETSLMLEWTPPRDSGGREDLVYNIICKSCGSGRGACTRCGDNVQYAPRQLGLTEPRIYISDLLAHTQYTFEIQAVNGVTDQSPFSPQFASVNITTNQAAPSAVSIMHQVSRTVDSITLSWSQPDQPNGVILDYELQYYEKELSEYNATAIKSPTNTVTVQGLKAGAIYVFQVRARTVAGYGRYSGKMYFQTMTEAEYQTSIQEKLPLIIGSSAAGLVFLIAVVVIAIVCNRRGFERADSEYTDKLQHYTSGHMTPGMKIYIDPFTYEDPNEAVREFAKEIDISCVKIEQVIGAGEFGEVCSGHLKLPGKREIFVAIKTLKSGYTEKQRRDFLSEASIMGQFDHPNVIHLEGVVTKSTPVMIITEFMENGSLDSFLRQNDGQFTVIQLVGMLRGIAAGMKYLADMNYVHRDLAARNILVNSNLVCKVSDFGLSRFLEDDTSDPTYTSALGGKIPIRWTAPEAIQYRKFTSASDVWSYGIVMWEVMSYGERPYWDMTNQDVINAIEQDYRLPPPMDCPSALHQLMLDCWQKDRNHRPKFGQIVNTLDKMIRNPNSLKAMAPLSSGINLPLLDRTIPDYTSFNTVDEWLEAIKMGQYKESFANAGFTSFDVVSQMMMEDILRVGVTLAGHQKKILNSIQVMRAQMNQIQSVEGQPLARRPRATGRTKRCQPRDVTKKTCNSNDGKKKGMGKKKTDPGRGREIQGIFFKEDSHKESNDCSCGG
Sequence of FGFR1 (P11362 whole entry, looked up): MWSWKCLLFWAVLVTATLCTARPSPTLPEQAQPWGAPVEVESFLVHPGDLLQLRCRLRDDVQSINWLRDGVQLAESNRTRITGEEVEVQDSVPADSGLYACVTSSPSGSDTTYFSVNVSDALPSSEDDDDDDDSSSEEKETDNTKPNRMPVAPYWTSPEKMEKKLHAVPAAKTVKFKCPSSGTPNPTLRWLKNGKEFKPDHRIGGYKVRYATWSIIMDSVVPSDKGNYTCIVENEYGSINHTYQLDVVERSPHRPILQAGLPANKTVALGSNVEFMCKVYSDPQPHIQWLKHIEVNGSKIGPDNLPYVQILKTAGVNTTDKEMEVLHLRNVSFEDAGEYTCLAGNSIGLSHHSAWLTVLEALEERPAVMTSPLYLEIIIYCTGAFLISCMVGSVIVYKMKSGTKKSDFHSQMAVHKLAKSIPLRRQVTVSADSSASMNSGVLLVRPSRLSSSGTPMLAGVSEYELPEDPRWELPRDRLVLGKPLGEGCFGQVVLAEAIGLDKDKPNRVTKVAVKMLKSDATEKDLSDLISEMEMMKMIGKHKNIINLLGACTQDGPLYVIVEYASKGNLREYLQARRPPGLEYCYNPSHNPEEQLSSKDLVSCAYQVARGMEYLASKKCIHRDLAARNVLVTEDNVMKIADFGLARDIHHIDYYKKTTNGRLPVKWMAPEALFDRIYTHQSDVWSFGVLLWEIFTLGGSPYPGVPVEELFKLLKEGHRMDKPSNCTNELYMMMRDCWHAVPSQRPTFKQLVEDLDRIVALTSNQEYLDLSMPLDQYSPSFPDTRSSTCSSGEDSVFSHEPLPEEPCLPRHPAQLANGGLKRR
Sequence of Fyn (P06241 whole entry, looked up): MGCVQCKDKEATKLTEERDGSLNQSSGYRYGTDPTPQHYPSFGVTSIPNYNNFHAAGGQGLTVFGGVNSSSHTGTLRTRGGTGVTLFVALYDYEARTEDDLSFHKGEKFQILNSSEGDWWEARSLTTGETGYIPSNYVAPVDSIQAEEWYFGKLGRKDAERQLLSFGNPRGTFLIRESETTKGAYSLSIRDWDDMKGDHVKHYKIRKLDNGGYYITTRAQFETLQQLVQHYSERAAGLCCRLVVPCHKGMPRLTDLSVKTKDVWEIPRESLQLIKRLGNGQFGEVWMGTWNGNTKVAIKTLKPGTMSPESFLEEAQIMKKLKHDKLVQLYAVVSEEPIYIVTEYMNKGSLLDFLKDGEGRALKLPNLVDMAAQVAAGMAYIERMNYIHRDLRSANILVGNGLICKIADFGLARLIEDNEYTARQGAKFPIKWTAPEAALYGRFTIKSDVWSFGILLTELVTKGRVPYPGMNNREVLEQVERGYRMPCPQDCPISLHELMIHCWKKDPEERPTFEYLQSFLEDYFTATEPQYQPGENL
Sequence of Fes (P07332 whole entry, looked up): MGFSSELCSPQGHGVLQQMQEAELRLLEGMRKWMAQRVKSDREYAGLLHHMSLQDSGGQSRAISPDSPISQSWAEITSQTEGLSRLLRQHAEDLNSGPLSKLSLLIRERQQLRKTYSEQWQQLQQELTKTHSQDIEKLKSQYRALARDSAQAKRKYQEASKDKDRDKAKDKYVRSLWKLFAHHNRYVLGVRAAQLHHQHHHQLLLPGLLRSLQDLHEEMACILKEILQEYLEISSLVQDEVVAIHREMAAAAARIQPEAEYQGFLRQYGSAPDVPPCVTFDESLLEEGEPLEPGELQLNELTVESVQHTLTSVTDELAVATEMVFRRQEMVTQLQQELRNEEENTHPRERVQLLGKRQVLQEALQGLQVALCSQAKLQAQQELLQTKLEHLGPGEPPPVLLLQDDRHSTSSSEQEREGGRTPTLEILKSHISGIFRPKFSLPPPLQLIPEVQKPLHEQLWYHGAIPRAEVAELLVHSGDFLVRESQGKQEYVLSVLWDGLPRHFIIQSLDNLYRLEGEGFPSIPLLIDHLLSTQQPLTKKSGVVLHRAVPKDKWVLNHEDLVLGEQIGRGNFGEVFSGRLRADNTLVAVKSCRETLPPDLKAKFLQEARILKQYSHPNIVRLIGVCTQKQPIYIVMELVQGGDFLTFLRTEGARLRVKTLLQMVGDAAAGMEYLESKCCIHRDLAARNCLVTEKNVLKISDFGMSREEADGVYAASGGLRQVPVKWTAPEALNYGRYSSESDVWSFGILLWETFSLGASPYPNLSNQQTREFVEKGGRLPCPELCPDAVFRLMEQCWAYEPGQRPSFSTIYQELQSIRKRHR
Sequence of MERTK (Q12866 whole entry, looked up): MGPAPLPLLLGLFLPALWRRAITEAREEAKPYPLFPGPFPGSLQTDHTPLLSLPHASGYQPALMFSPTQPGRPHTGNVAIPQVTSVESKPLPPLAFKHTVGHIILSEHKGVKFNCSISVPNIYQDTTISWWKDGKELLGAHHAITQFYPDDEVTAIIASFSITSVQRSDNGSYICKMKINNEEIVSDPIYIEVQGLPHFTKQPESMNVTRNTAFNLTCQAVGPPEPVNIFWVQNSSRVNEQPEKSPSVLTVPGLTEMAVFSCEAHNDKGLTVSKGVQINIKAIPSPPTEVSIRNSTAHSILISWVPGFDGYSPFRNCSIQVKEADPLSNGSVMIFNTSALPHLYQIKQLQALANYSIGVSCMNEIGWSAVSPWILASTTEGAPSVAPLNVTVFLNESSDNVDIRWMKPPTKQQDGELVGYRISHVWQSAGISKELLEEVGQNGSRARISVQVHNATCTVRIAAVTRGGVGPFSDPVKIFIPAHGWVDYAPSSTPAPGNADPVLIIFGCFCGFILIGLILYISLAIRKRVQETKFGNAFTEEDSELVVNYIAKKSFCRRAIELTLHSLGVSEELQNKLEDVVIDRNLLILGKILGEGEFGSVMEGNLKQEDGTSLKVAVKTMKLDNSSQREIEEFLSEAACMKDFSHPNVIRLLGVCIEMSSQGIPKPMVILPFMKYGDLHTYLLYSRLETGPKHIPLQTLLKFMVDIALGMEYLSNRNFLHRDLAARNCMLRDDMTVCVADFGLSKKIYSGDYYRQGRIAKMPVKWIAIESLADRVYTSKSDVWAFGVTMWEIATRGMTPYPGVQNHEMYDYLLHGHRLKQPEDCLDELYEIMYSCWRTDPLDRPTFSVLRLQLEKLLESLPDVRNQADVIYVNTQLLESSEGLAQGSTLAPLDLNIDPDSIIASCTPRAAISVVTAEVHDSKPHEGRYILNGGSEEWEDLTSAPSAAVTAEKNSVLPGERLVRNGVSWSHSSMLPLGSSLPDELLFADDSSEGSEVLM
Sequence of Hck (P08631 whole entry, looked up): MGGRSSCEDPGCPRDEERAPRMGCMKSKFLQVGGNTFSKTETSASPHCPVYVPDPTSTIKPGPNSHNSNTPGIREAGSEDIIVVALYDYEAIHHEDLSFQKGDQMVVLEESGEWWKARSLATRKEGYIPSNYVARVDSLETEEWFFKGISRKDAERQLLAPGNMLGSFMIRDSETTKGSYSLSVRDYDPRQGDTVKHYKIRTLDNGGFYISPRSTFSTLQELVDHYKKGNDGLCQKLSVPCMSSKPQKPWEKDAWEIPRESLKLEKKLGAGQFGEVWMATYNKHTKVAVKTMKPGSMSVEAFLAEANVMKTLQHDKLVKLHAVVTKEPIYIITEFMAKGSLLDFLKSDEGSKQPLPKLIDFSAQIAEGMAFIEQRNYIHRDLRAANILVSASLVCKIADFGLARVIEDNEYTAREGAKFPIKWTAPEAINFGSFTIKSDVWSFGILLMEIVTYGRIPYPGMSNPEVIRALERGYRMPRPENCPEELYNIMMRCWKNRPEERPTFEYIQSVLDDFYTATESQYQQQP

| SH2 binding enrichment (Grb2 SH2) | SH2 binding enrichment (SHP2-C SH2) | SH2 binding enrichment (c-Src SH2) | Sequence | phosphorylation enrichment (AncSZ) | phosphorylation enrichment (EPHB1) | phosphorylation enrichment (EPHB2) | phosphorylation enrichment (FGFR1) | phosphorylation enrichment (FGFR3) | phosphorylation enrichment (Fer (mouse)) | phosphorylation enrichment (Fes) | phosphorylation enrichment (Fyn) | phosphorylation enrichment (Hck) | phosphorylation enrichment (Jak2) | phosphorylation enrichment (MERTK) | phosphorylation enrichment (c-Abl (mouse)) | phosphorylation enrichment (c-Src) |
| --- | --- | --- | --- | --- | --- | --- | --- | --- | --- | --- | --- | --- | --- | --- | --- | --- |
| 0.66 | 0.619 | 0.864 | SVVVPYEPTEV [TP53_Y220_P223T] | 0.992 | 0.725 | 0.765 | 0.481 | 0.742 | 0.709 | 1.33 | 0.522 | 0.506 | 1.27 | 0.578 | 0.885 | 0.482 |
| 0.726 | 0.825 | 0.477 | MPAVTYTPAMR [MEGF10_Y895] | 0.481 | 0.253 | 0.328 | 0.28 | 0.425 | 0.313 | 0.569 | 0.313 | 0.415 | 0.743 | 0.336 | 0.455 | 0.384 |
| 0.762 | 0.539 | 0.67 | IHSGIYYKPES [L2HGDH_Y102] | 1.45 | 3.93 | 2.02 | 1.53 | 1.38 | 0.943 | 0.752 | 6 | 5.38 | 3.48 | 11.7 | 18.7 | 4.54 |
| 0.862 | 0.698 | 0.675 | NHYKIYNLYAE [PTEN_Y68_C71Y] | 0.749 | 0.455 | 0.641 | 0.461 | 0.541 | 0.481 | 0.723 | 2.14 | 2.54 | 0.664 | 0.461 | 0.56 | 2.43 |
| 1.08 | 0.887 | 1.15 | FAKSVYWENTL [NUP107_Y296_YF] | 0.899 | 0.554 | 0.531 | 0.506 | 0.752 | 0.418 | 1.32 | 0.768 | 0.857 | 0.987 | 0.588 | 0.638 | 0.802 |
| 0.977 | 0.861 | 0.561 | IGNGYYFRVFS [MYBPC3_Y1136] | 1.34 | 0.729 | 0.667 | 0.514 | 0.947 | 0.556 | 1.43 | 0.496 | 0.557 | 1.44 | 0.449 | 0.967 | 0.359 |
| 0.786 | 0.729 | 0.452 | PQGVRYTFTID [DCX_Y103_I104T_YF] | 1.41 | 0.768 | 1.04 | 0.521 | 1.36 | 0.796 | 1.66 | 0.7 | 0.642 | 1.48 | 0.356 | 1.55 | 0.529 |
| 0.86 | 0.46 | 2.38 | YEDALYTVLHR [UNC13D_Y61] | 3.84 | 16.6 | 15.9 | 3.68 | 3.1 | 12.9 | 2.06 | 8.38 | 9.13 | 1.7 | 9.59 | 11.5 | 7.21 |
| 1.16 | 1.17 | 0.806 | AMIADYMFWLG [SPATA16_Y290] | 2.24 | 7.43 | 15.2 | 12.2 | 10.8 | 2.01 | 1.31 | 0.727 | 1.49 | 3.71 | 2.52 | 1.24 | 1.3 |
| 0.782 | 0.583 | 0.524 | KQVEQYMSFHK [HCN1_Y417] | 0.833 | 0.528 | 0.555 | 0.49 | 0.54 | 0.413 | 0.754 | 1.49 | 3.62 | 0.687 | 0.384 | 0.691 | 1.45 |
| 1.18 | 1.21 | 0.677 | GMKIVYVFVKK [DNAI2_Y5_E2K_YF] | 1.2 | 0.59 | 0.538 | 0.433 | 0.706 | 0.416 | 1.14 | 0.463 | 0.428 | 1 | 1.06 | 0.863 | 0.394 |
| 0.821 | 0.447 | 0.544 | TRDTDYQMTKR [ADA_Y308_L304R] | 0.639 | 0.383 | 0.446 | 0.394 | 0.7 | 0.359 | 0.646 | 0.377 | 0.373 | 0.525 | 0.344 | 0.501 | 0.31 |
| 0.882 | 0.901 | 0.442 | SSPVLYLSPET [TJP1_Y931_P930L] | 1.21 | 1.14 | 0.815 | 0.663 | 0.713 | 0.459 | 0.833 | 0.534 | 0.626 | 1.02 | 0.782 | 1.61 | 0.469 |
| 0.809 | 0.718 | 0.623 | RPLVVYPWTQR [HBB_Y36_L32P] | 0.728 | 1.11 | 0.695 | 0.473 | 0.45 | 0.358 | 0.748 | 0.468 | 0.407 | 0.445 | 0.389 | 0.509 | 0.446 |
| 0.862 | 0.783 | 0.437 | LPEVSYVKAID [GLRA1_Y307_K304E] | 0.207 | 0.095 | – | – | 0.1 | – | 0.205 | 0.28 | 0.203 | 0.44 | 0.07 | 0.132 | 0.126 |
| 1.54 | 0.799 | 1.84 | APQYTYTQGGQ [FLNA_Y1763_A1764T] | – | – | – | – | – | – | – | – | – | – | – | – | – |
